Eight molecules from patent EP4454706A1 (Universität Stuttgart, dated 2024) can be followed below.

Where two headings read alike, the source gives them in different places.

In assay [1] the target is T1, EGFR-His fusion protein comprising the extracellular domain (aa 25 - 645) of human EGFR (human, UniProt P00533 25-645).
T1 construct: also called His-tagged extracellular domain of EGFR wt
In words: ELISA, coated EGFR-His. On the technique in general: ELISA stands for enzyme-linked immunosorbent assay.

For assay [2], the target named is T2, human EGFR (aa 1 - 1,210), on cells (human, UniProt P00533 25-1210). In words: cell-based or functional assay.
The target in assay [3] is T2, human EGFR (aa 1 - 1,210), on cells. The experiment in a line: flow cytometry, LIM1215 cells.
The target is the same in assay [4]. The experiment in a line: flow cytometry, FaDu cells. (Flow cytometry measures light scatter and fluorescence of single cells or particles in a stream.)
Another assay concerns the target T3, CD3 on Jurkat cells (human, UniProt P07766 23-207).
T3 construct: whole, on cells; also called CD3-expressing Jurkat
The experiment in a line: flow cytometry, Jurkat cells.

The target in assay [5] is T4, His-tagged extracellular domain of EGFR comprising the mutation V441D (human, UniProt P00533 25-645).
T4 construct: See m46; also called V441D (BLI antigen)
In words: BLI (Octet), Fab on FAB2G sensor, EGFR-His in solution. (In general: BLI is a label-free optical method that tracks binding on a fibre tip over time.)

Assay [6] deals with T5, His-tagged extracellular domain of EGFR comprising the mutation S464L (human, UniProt P00533 25-645).
T5 construct: See m46; also called S464L (BLI antigen)
Described as above.

Assay [7] addresses T6, His-tagged extracellular domain of EGFR comprising the mutation S492R (human, UniProt P00533 25-645).
T6 construct: See m46; also called S492R (BLI antigen)
Described as above.

In assay [8] the target is T7, His-tagged extracellular domain of EGFR comprising the mutation G465R (human, UniProt P00533 25-645).
T7 construct: See m46; also called G465R (BLI antigen)
The description is as above.

The target in assay [9] is T1, EGFR-His fusion protein comprising the …. The assay is described as above.
Assay [10] deals with T8, EGFR-moIgG2a-Fc fusion protein comprising the extracellular domain (aa 25 - 645) of human EGFR (human).
T8 construct: also called EGFR wt
In words: ELISA, coated EGFR-moIgG2a-Fc.

For assay [11], the target named is T2, human EGFR (aa 1 - 1,210), on cells. The experiment in a line: flow cytometry, DiFi cells.
For assay [12], the target named is T1, EGFR-His fusion protein comprising the …. The experiment in a line: ELISA, coated EGFR-His. The source holds these as a separate data set.
Assay [13] deals with T2, human EGFR (aa 1 - 1,210), on cells. The experiment in a line: flow cytometry, FaDu cells. The source holds these as a separate data set.
Assay [14] addresses T8, EGFR-moIgG2a-Fc fusion protein …. In words: ELISA, coated EGFR-moIgG2a-Fc. This is another data set of the same source.

B1: IgG YU250-H10 wt (parental antibody of Example 5) (antibody)
light: QSVLTQPPSVSGAPGQRVTISCSGGSSNVGRNGVNWFQHLPEKAPKLLIYYDAFLSSGVSDRFSGSKSGTSASLAIRGLQSDDEADYYCAAWDDSLYSWVFGGGTNLTVLGQPKAAPSVTLFPPSSEELQANKATLVCLISDFYPGAVTVAWKADSSPVKAGVETTTPSKQSNNKYAASSYLSLTPEQWKSHRSYSCQVTHEGSTVEKTVAPTECS
heavy: not shown
notes: kept as a molecule of its own; Roles inferred
Consider B1, for which the concentration giving a half-maximal response (EC50) in [1] was 0.49 nM.

B2: IgG YU250-H10 variant VL N126K (antibody)
light: QSVLTQPPSVSGAPGQRVTISCSGGSSNVGRNGVNWFQHLPEKAPKLLIYYDAFLSSGVSDRFSGSKSGTSASLAIRGLQSDDEADYYCAAWDDSLYSWVFGGGTKLTVLGQPKAAPSVTLFPPSSEELQANKATLVCLISDFYPGAVTVAWKADSSPVKAGVETTTPSKQSNNKYAASSYLSLTPEQWKSHRSYSCQVTHEGSTVEKTVAPTECS
heavy: not shown
notes: Potential glycosylation site in VL deleted (N126K); Roles inferred; also called VL N1216K
Regarding B2, in [1], the response was half-maximal at 0.53 nM (EC50).

B3: scDb-YU250-H10 x huU3-scFv-YU250-H10 (bispecific antibody)
chain: QVQLVQSGGGVVQPGGSLRLSCAASGFTFSSYGMHWVRQAPGKGLEWVAFIRYDGSNKYYADSVKGRFTISRDNSKNTLYLQMNSLRAEDTAVYYCAKDGNSGYDSMDYWGQGTLVTVSSGGGGSDIQMTQSPSSLSASVGDRVTITCRASQDIRNYLNWYQQKPGKAPKLLIYYTSRLHSGVPSRFSGSGSGTDFTFTISSLQPEDIATYYCQQGNTLPWTFGQGTKLEIKRGGGGSGGGGSGGGGSQVQLVQSGAEVKKPGSSVKVSCKASGGTFSGYTMNWVRQAPGQGLEWMGLINPYKGVSTYNGKFKDRVTITADKSTSTAYMELSSLRSEDTAVYYCARSGYYGDSDWYFDVWGQGTLVTVSSGGGGSQSVLTQPPSVSGAPGQRVTISCSGGSSNVGRNGVNWFQHLPEKAPKLLIYYDAFLSSGVSDRFSGSKSGTSASLAIRGLQSDDEADYYCAAWDDSLYSWVFGGGTNLTVLAAAGGSGGGGSGGGTQVQLVQSGGGVVQPGGSLRLSCAASGFTFSSYGMHWVRQAPGKGLEWVAFIRYDGSNKYYADSVKGRFTISRDNSKNTLYLQMNSLRAEDTAVYYCAKDGNSGYDSMDYWGQGTLVTVSSGGGGSGGGGSGGGGSQSVLTQPPSVSGAPGQRVTISCSGGSSNVGRNGVNWFQHLPEKAPKLLIYYDAFLSSGVSDRFSGSKSGTSASLAIRGLQSDDEADYYCAAWDDSLYSWVFGGGTNLTVLGSLHHHHHH
notes: Trivalent; detected with an anti-His antibody; also called scDb-scFv; bispecific trivalent EGFRxCD3 scDb-scFv
On to B3, for which the “IC50 for cytotoxicity, FaDu + PBMCs (E:T 10:1)” value in assay [2] turned out to be 0.0044 nM. Also, in assay [2], the “IC50 for cytotoxicity, LIM1215 + PBMCs (E:T 10:1)” value is 0.004 nM. Moreover, the EC50 in [3] is 0.31 nM; in [4], 0.74 nM; in the assay with CD3 on Jurkat cells, above 10 nM.

B4: scDb YU250-H10 x huU3 (bispecific antibody)
chain: QVQLVQSGGGVVQPGGSLRLSCAASGFTFSSYGMHWVRQAPGKGLEWVAFIRYDGSNKYYADSVKGRFTISRDNSKNTLYLQMNSLRAEDTAVYYCAKDGNSGYDSMDYWGQGTLVTVSSGGGGSDIQMTQSPSSLSASVGDRVTITCRASQDIRNYLNWYQQKPGKAPKLLIYYTSRLHSGVPSRFSGSGSGTDFTFTISSLQPEDIATYYCQQGNTLPWTFGQGTKLEIKRGGGGSGGGGSGGGGSQVQLVQSGAEVKKPGSSVKVSCKASGGTFSGYTMNWVRQAPGQGLEWMGLINPYKGVSTYNGKFKDRVTITADKSTSTAYMELSSLRSEDTAVYYCARSGYYGDSDWYFDVWGQGTLVTVSSGGGGSQSVLTQPPSVSGAPGQRVTISCSGGSSNVGRNGVNWFQHLPEKAPKLLIYYDAFLSSGVSDRFSGSKSGTSASLAIRGLQSDDEADYYCAAWDDSLYSWVFGGGTNLTVLAAAGGSGGGGSGGGTGGGGSLHHHHHH
notes: Bivalent single-chain diabody; detected with an anti-His antibody; also called bispecific EGFRxCD3 scDb
For B4, the “IC50 for cytotoxicity, FaDu + PBMCs (E:T 10:1)” value in assay [2] is 0.0181 nM. In addition, the “IC50 for cytotoxicity, LIM1215 + PBMCs (E:T 10:1)” value in [2] was 0.0602 nM. Further, the results for the half-maximal effective concentration (EC50) (in [3]; in assay [4]; with CD3 on Jurkat cells) were 1.02 nM, 1.68 nM and 7.56 nM, respectively.

B5: Fab-His MKU011-A7 (Fab, V domains shown)
VH: QVQLVQSGGGVVQPGGSLRLSCAASGFTFSSYGMHWVRQAPGKGLEWVAFIRYDGSNKYYADSVKGRFTISRDNSKNTLYLQMNSLRAEDTAVYYCAKDGNSGYDSMDYWGQGTLVTVSS
VL: QPVLTQSPSASGTPGQRVTISCSGVSSNIGRNYVYWYQQFPGTAPKLLIYATHQRPSGVPDRFSGSKSGTSASLAISGLRSEDEANYYCAAWDDGVTGWVFGGGTKLTVLG
notes: also called Fab MKU011-A7; His-tagged anti-EGFR Fab MKU011-A7
For the molecule B5, the Kd in assay [5] was below 10000 nM; in assay [6], below 10000 nM; in [7], below 10000 nM; in assay [8], below 10000 nM; in assay [9], below 100 nM. The molecule further came in with a 50% effective concentration (EC50) in assay [10] of 2.79 nM.

B6: Fab-His YU250-A02 (Fab, V domains shown)
VH: QVQLQESGGGVVQPGGSLRLSCAASGFTFSSYGMHWVRQAPGKGLEWVAFIRYDGSNKYYADSVKGRFTISRDNSKNTLYLQMNSLRAEDTAVYYCAKDGNSGYDSMDYWGQGTLVTVSS
VL: QSVLTQPPSVSGAPGQRVTISCSGGSSNVGRNGVNWFQHLPEKAPKLLIYYDAFLSSGVSDRFSGSKSGTSASLAIRGLQSEDEADYYCASWDDSLTGWVFGGGTKLTVLG
notes: Roles inferred as for IgG YU250-A02; also called Fab YU250-A02
With B6, the dissociation constant Kd was below 10000 nM in [5]; below 10000 nM in [6]; below 10000 nM in [7]; below 10000 nM in assay [8]; below 100 nM in assay [9].

B7: IgG1 MKU011-A7 (antibody, V domains shown)
VH: QVQLVQSGGGVVQPGGSLRLSCAASGFTFSSYGMHWVRQAPGKGLEWVAFIRYDGSNKYYADSVKGRFTISRDNSKNTLYLQMNSLRAEDTAVYYCAKDGNSGYDSMDYWGQGTLVTVSS
VL: QPVLTQSPSASGTPGQRVTISCSGVSSNIGRNYVYWYQQFPGTAPKLLIYATHQRPSGVPDRFSGSKSGTSASLAISGLRSEDEANYYCAAWDDGVTGWVFGGGTKLTVLG
notes: Fully human IgG1; also called IgG MKU011-A7; IgG MKU-011-A07
For B7, the half-maximal effective concentration (EC50) in assay [11] amounted to 0.81 nM; in assay [10] it was 0.32 nM; in assay [12] it was 0.19 nM; in assay [13], 0.35 nM.

B8: Fab-His YU250-H10 (Fab, V domains shown)
VH: QVQLVQSGGGVVQPGGSLRLSCAASGFTFSSYGMHWVRQAPGKGLEWVAFIRYDGSNKYYADSVKGRFTISRDNSKNTLYLQMNSLRAEDTAVYYCAKDGNSGYDSMDYWGQGTLVTVSS
VL: QSVLTQPPSVSGAPGQRVTISCSGGSSNVGRNGVNWFQHLPEKAPKLLIYYDAFLSSGVSDRFSGSKSGTSASLAIRGLQSDDEADYYCAAWDDSLYSWVFGGGTNLTVLG
notes: T0001 gives '6 and 8' and '9 and 11' for Fab-His YU250-H10; Roles inferred; also called Fab YU250-H10
As to B8, the Kd in assay [5] was below 10000 nM; in assay [6], below 10000 nM; in assay [7] it was below 10000 nM; in [8], below 10000 nM; in assay [9], below 100 nM. Moreover, the half-maximal effective concentration (EC50) in [10] was 0.59 nM. The “fold increased binding against Fab-His MKU011-A7” value in assay [14] amounted to 4.7 fold.

Usually EC50 stands for the concentration giving half of the maximal effect. Read a high EC50 as lower potency in that assay. Broadly, the Kd is the equilibrium constant for the complex coming apart. A lower Kd goes with higher affinity.
